Earlier results in paper PMC8232796.
Where two headings read alike, the source gives them in different places. Blank lines part the entries; values can stand above or below the substance they belong to.

Assays:
Ubiquitin (Homo sapiens) [1] = molecular target: Ubiquitin (Homo sapiens) (UniProt P0CG48)
[2] = molecular target: HIV-1 Gag p6 peptide p6 (Human immunodeficiency virus 1) (UniProt O93182)
Ubiquitin (Homo sapiens) [3] = molecular target: Ubiquitin (Homo sapiens) (UniProt P0CG48); remark: listed apart in the source
Ubiquitin (Homo sapiens) [4] = molecular target: Ubiquitin (Homo sapiens) (UniProt P0CG48); remark: listed apart in the source

Tsg101 UEV UEV, sequence (Q99816 1-148): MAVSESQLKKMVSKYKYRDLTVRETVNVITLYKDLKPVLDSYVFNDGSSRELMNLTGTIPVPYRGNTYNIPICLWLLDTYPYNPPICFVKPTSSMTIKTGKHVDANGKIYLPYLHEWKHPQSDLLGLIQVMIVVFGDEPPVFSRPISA
UbcH5, sequence (P51668 whole entry): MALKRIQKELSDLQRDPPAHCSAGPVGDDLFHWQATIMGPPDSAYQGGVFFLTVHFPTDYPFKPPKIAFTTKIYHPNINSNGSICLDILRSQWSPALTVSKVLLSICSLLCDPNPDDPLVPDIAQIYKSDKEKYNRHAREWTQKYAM
hMms2 UEV, sequence (Q15819 2-145): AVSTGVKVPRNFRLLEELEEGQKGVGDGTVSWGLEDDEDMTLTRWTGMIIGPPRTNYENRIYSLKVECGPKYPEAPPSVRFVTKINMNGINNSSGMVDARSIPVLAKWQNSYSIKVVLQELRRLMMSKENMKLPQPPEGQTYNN

Substance: Tsg101 UEV UEV (from UniProt Q99816)
Kd (Ubiquitin (Homo sapiens) [1]): 500 µM
Kd [2]: 27 µM

Kd (Ubiquitin (Homo sapiens) [3]): 100 µM
Substance: hMms2 UEV (from UniProt Q15819)

Kd (Ubiquitin (Homo sapiens) [4]): 300 µM
Substance: UbcH5 (from UniProt P51668)
